Reference: the RNAGym collection of RNA variant scans (doi:10.7554/elife.80360)

B1: CPEB3 Ribozyme (parent)
chain: GGGGGCCACAGCAGAAGCGUUCACGUCGCGGCCCCUGUCAGAUUCUGGUGAAUCUGCGAAUUCUGCUGU

Variants of: B1
Assay: self-cleavage, relative activity (ratio to wild type); higher = more cleavage; co-transcriptional

Point of comparison: G5U U36A, self-cleavage 0.0704. Against it:
- C6G G41A — higher, 0.122
- C6G G41U — higher, 0.252
- C6G G37A — higher, 0.0792
- C6G G37C — lower, 0.0619
- C6G C39G — higher, 0.174
- C6A C54U — higher, 0.67
- G5U U36G — higher, 0.343
- C6A A15C — higher, 0.235
- G5U U62A — higher, 0.123
- C6A U55C — higher, 0.142
- G5U U46A — higher, 0.24
- G5U U46C — higher, 0.254
- G5U U46G — higher, 0.321
- G5U U38C — higher, 0.174
- G5U G48C — higher, 0.327
- G5U G48U — higher, 0.332
- C6A U67C — higher, 0.883
- C6A U67A — higher, 0.782
- C6A U53A — higher, 0.422
- C6A U53C — higher, 0.335
- C6A U53G — higher, 0.195
- C6G A52C — higher, 0.264
- C6G A52G — higher, 0.343
- G5U U43G — higher, 0.161
- G5U G14A — higher, 0.078
- G5U G14U — lower, 0.0546
- G5U U61C — higher, 0.0722
- G5U U61A — higher, 0.108
- C6G A60U — higher, 0.137
- C6G A60G — higher, 0.16
- C6G C27G — lower, 0.0563
- C6G C27U — higher, 0.0872
- C6G C27A — lower, 0.0381
- C6G G19C — lower, 0.0471
- C6G G19A — higher, 0.0949
- C6G G19U — lower, 0.0686
- C6A G41A — higher, 0.241
- G5U C35G — higher, 0.08
- C6A A60G — higher, 0.326
- C6A A60C — higher, 0.17
- C6A A60U — higher, 0.226
- C6A C7A — higher, 0.143
- G5U C39U — higher, 0.101
- C6A C24A — higher, 0.162
- C6A C24G — higher, 0.0842
- C6G C29G — lower, 0.0434
- C6G C29U — higher, 0.0888
- C6G C9A — higher, 0.651
- C6G C9G — higher, 0.445
- C6A U46G — higher, 0.607
- C6A U46A — higher, 0.674
- C6A U46C — higher, 0.657
- C6A G30A — higher, 0.338
- C6A G30U — higher, 0.157
- C6G G68A — higher, 0.602
- C6G C24U — higher, 0.193
- C6G C24G — higher, 0.085
- C6G C24A — higher, 0.0804
- G5U U20G — higher, 0.0745
- G5U U20C — higher, 0.0958
- G5U U20A — lower, 0.0505
- C6G G31U — higher, 0.967
- C6G G31A — higher, 0.753
- C6A G58A — higher, 0.443
- C6A G58U — higher, 0.695
- C6G — higher, 0.388
- C6A — higher, 0.705
- C6G G14C — higher, 0.0817
- C6G G14A — higher, 0.0825
- G5U C6U — higher, 0.111
- C6A U43G — higher, 0.367
- C6A G56C — higher, 0.225
- C6A A42G — higher, 0.609
- C6A A42C — higher, 0.221
- C6A C35A — higher, 0.114
- G5U G65A — higher, 0.187
- G5U G65U — higher, 0.0885
- C6A C32G — higher, 0.147
- C6A C32A — higher, 0.349
- C6A C32U — higher, 0.123
- C6G G30C — higher, 0.133
- C6G G30A — higher, 0.172
- C6G C66A — higher, 0.18
- C6G C66U — higher, 0.316
- G5U G28C — higher, 0.0876
- G5U G28U — lower, 0.0687
- G5U G28A — lower, 0.046
- C6G A40G — higher, 0.307
- C6G A40C — higher, 0.128
- C6G A40U — higher, 0.0791
- C6A C63A — higher, 0.237
- C6A C66A — higher, 0.386
- C6A C66G — higher, 0.44
- C6A C66U — higher, 0.641
- G5U A52G — higher, 0.266
- G5U A52U — higher, 0.232
- G5U A60C — higher, 0.0763
- G5U A60G — higher, 0.0935
- G5U A60U — higher, 0.149
- C6A C22A — higher, 0.165
- C6A C22U — higher, 0.0847
- G5U U67G — higher, 0.615
- C6G C18U — higher, 0.0723
- C6G C18A — lower, 0.0602
- C6G C18G — lower, 0.062
- C6A C12G — higher, 0.26
- C6A C12A — higher, 0.16
- C6A G17C — higher, 0.115
- C6A G17U — higher, 0.119
- C6A U36C — higher, 0.247
- G5U C54U — higher, 0.231
- C6G G65A — higher, 0.109
- C6G G65U — higher, 0.226
- C6G C33G — lower, 0.0662
- C6G C33A — higher, 0.117
- C6G C33U — higher, 0.262
- G5U A51G — higher, 0.198
- G5U A51U — higher, 0.236
- G5U U64G — higher, 0.194
- G5U U64A — higher, 0.109
- G5U U64C — higher, 0.195
- C6G G25C — lower, 0.0497
- C6G G25U — lower, 0.0634
- C6A U26G — higher, 0.265
- C6A U26A — higher, 0.256
- C6G A15C — higher, 0.122
- G5U G68C — higher, 0.716
- G5U G68U — higher, 0.793
- G5U G68A — higher, 0.886
- C6A U64A — higher, 0.307
- C6A U64G — higher, 0.469
- G5U C7U — higher, 0.0819
- G5U C7G — lower, 0.0615
- G5U C7A — higher, 0.086
- C6G G47C — higher, 0.36
- C6G G47A — higher, 0.377
- C6A G48C — higher, 0.693
- G5U G30U — higher, 0.0993
- G5U G30C — higher, 0.08
- C6A A8U — higher, 0.607
- C6A A8C — higher, 0.733
- C6G G56U — higher, 0.152
- C6G G56C — higher, 0.199
- C6G G56A — higher, 0.204
- C6G C45A — higher, 0.227
- C6G C45U — higher, 0.362
- C6G G28U — lower, 0.0241
- G5U U44G — higher, 0.0852
- G5U U44C — higher, 0.192
- G5U U44A — higher, 0.125
- C6G G58A — higher, 0.2
- C6G G58C — higher, 0.294
- C6G G58U — higher, 0.402
- C6G A13G — higher, 0.0914
- G5U G50U — higher, 0.313
- G5U G50C — higher, 0.341
- C6A A52G — higher, 0.58
- C6A A52U — higher, 0.559
- G5U U53G — higher, 0.152
- C6G C57A — lower, 0.0667
- C6G C57U — higher, 0.189
- C6A U49C — higher, 0.716
- C6A U49G — higher, 0.5
- C6G G11C — higher, 0.17
- G5U U26A — higher, 0.132
- G5U U26G — higher, 0.103
